Measurements reported in patent US20110059095A1 (Regeneron, published 2011).

B1: H4H583P (antibody, human IgG4, V domains shown)
VH: QVQLVESGGGVVQPGMSLRLSCTASGFTFRRYGMHWVRQAPGKGLEWVAVIWYDGSNKYYADSVKGRFTITRDNSKNTLYLQMNSLRAEDTAIYFCASEITIGDWFDPRGQGTLVTVSS
VL: AIQMTQSPSSLSASVGDRVTITCRASQGIRNDLGWFQQKPGKVPKLLIYAASTLHSGVPSRFSGSGFGTDFTLTISSLQPEDFATYYCLQDFNYPLTFGGGTKVEIK
notes: also called H1H583P variable regions
B2: H4H581P (antibody, human IgG4, V domains shown)
VH: QVQLVESGGGVVQPGRSLRLSCVASGFTFSRYGIHWVRQAPGKGLEWVIVISYDGINKYYADSVKGRFTISRDNSKNTVYLQMNSLRAEDTAVYYCAKGDFWSGYFDYWGQGTLVTVSS
VL: DIVMTQTPLSSPVTLGQPASISCRSSQSLVHSDGNTYLSWLHQRPGQPPRLLIYKISNRFSGVPDRFSGSGAGTDFTLQISRVEAEDVGIYYCMQATQFPTFGGGTKVEIK
notes: also called mAb H4H581P; H1H581P variable regions
B3: H4H588N (antibody, human IgG4, V domains shown)
VH: EVQLLESGGGLVQPGGSLRLSCAASGFTFSSYAMTWVRQAPGKGLYWVSAISGGRGSAYYADSVKGRFTISRDNSKNTLYLQMNSLRAEDTAVYYCAKEGDSGYDLAYWGRGTLVTVSS
VL: DIQMTQSPSSLSASVGDRVTITCRARQGISNNLAWLQQKPGKAPKSLIYAASSLQSGIPSKFSGSGSGTYFTLTISSLQPEDFATYYCQQYKSSPLTFGGGTKVEIK
notes: also called H2M588N variable regions

Key:
Peptide J (pig PAR-2) = target: T1, Peptide J (pig PAR-2) (Pig (Sus scrofa)); assay: SPR, antibody captured
T1 peptide: GTSRPSKGRSLIGKADNT
Method: Equilibrium dissociation constants (KD values) for antigen binding to selected purified PAR-2 antibodies were determined by surface kinetics using a real-time surface plasmon resonance biosensor assay. Antibody was captured on either a rabbit anti-mouse IgG polyclonal antibody (GE Healthcare, Piscataway, N.J.) surface or a goat anti-human IgG polyclonal antibody (Jackson Immuno Research Lab, West Grove, Pa.) surface created through direct amine chemical coupling to a BIACORE™ CM5 sensor chip to form a captured antibody surface. […] Antigen-antibody binding and dissociation were monitored in real time at room temperature. Kinetic analysis was performed to calculate KD and half-life of antigen/antibody complex dissociation (Table 10). For those antibodies where no T_{1/2} value is shown, steady state analysis was used to calculate the KD value. NB: no binding observed under current experimental conditions. ND: not determined.

[1] = target: T2, C-terminal biotinylated human PAR-2 peptide SEQ ID NO:879 (Val-42 to Ala) (human, not fully specified; C-terminal biotin (K-B)); assay: BLI Exp2
T2 construct: alanine-scan mutant
T2 peptide: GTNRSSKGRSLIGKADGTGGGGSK
Method: (§1) In order to more particularly identify the amino acids of PAR-2 with which the PAR-2 antibodies interact, an alanine scanning study was carried out using peptides comprising the activating PAR-2 protease cleavage site.
(§2) The ability of each peptide mutant to bind to PAR-2 antibodies was measured using biolayer interferometry (Octet Red; ForteBio). Each peptide (2.5 μg/ml) was captured on streptavidin coated biosensor tips (Octet SA sensor) for 10 seconds. To measure binding and dissociation between each peptide and PAR-2 antibody, the peptide-coated biosensors were contacted with 200 nM solutions of PAR-2 antibodies for 5 minutes (binding) followed by transfer to buffer with no antibody for 10 min (dissociation). […] The results are expressed as percent binding and percent T_{1/2} relative to WT peptide (Tables 24-28).

[2] = target: T3, C-terminal biotinylated human PAR-2 peptide SEQ ID NO:882 (Thr-45 to Ala) (human, not fully specified; C-terminal biotin (K-B)); assay: BLI Exp2
T3 construct: alanine-scan mutant
T3 peptide: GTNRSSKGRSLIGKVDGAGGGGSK
Method: as §1, §2

[3] = target: T4, C-terminal biotinylated human PAR-2 peptide SEQ ID NO:874 (Ser-37 to Ala) (human, not fully specified; C-terminal biotin (K-B)); assay: BLI Exp2
T4 construct: alanine-scan mutant
T4 peptide: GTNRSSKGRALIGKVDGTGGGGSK
Method: as §1, §2

[4] = target: T5, C-terminal biotinylated human PAR-2 peptide SEQ ID NO:872 (Gly-35 to Ala) (human, not fully specified; C-terminal biotin (K-B)); assay: BLI Exp2
T5 construct: alanine-scan mutant
T5 peptide: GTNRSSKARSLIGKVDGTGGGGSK
Method: as §1, §2

[5] = target: T6, C-terminal biotinylated human PAR-2 14-mer peptide SEQ ID NO:885 (Val-42 to Ala) (human, not fully specified; C-terminal biotin (K-B)); assay: BLI Exp2
T6 peptide: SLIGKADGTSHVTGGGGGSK
Method: as §1, §2

[6] = target: T7, C-terminal biotinylated human PAR-2 peptide SEQ ID NO:876 (Ile-39 to Ala) (human, not fully specified; C-terminal biotin (K-B)); assay: BLI Exp2
T7 construct: alanine-scan mutant
T7 peptide: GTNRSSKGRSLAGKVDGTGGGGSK
Method: as §1, §2

[7] = target: T8, C-terminal biotinylated human PAR-2 peptide SEQ ID NO:877 (Gly-40 to Ala) (human, not fully specified; C-terminal biotin (K-B)); assay: BLI Exp2
T8 construct: alanine-scan mutant
T8 peptide: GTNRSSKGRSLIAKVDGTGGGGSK
Method: as §1, §2

[8] = target: T9, C-terminal biotinylated human PAR-2 peptide SEQ ID NO:880 (Asp-43 to Ala) (human, not fully specified; C-terminal biotin (K-B)); assay: BLI Exp2
T9 construct: alanine-scan mutant
T9 peptide: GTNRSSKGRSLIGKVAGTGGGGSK
Method: as §1, §2

[9] = target: T10, C-terminal biotinylated human PAR-2 14-mer peptide SEQ ID NO:887 (Val-42 and Asp-43 to Ala) (human, not fully specified; C-terminal biotin (K-B)); assay: BLI Exp2
T10 peptide: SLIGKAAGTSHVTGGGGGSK
Method: as §1, §2

[10] = target: T11, C-terminal biotinylated human PAR-2 peptide SEQ ID NO:873 (Arg-36 to Ala) (human, not fully specified; C-terminal biotin (K-B)); assay: BLI Exp2
T11 construct: alanine-scan mutant
T11 peptide: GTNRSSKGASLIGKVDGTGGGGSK
Method: as §1, §2

[11] = target: T12, C-terminal biotinylated human PAR-2 peptide SEQ ID NO:871 (wild-type) (human, not fully specified; C-terminal biotin (K-B)); assay: BLI Exp2
T12 construct: also called WT peptide
T12 peptide: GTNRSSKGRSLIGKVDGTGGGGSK
Method: as §1, §2

[12] = target: T13, C-terminal biotinylated human PAR-2 14-mer peptide SEQ ID NO:886 (Asp-43 to Ala) (human, not fully specified; C-terminal biotin (K-B)); assay: BLI Exp2
T13 peptide: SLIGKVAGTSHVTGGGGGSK
Method: as §1, §2

[13] = target: T14, C-terminal biotinylated human PAR-2 peptide SEQ ID NO:878 (Lys-41 to Ala) (human, not fully specified; C-terminal biotin (K-B)); assay: BLI Exp2
T14 construct: alanine-scan mutant
T14 peptide: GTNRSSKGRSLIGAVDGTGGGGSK
Method: as §1, §2

full length human PAR-2 = full length human PAR-2 (human, UniProt P55085 26-397); assay: cell-based or functional assay
[14] = target: T15, Peptide D (N-terminal domain of human PAR-2-mouse IgG2a) (Human); assay: peptide ELISA
T15 chain: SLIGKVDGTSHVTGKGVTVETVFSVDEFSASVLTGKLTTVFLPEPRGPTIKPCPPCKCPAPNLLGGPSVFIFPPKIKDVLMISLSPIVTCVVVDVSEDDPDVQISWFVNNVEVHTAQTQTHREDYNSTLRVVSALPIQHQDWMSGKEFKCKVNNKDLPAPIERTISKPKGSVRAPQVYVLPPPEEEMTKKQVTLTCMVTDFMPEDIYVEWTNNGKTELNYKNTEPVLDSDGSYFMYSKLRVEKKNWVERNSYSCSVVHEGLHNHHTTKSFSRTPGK

Chain of full length human PAR-2 (P55085 26-397 G138A limits assumed): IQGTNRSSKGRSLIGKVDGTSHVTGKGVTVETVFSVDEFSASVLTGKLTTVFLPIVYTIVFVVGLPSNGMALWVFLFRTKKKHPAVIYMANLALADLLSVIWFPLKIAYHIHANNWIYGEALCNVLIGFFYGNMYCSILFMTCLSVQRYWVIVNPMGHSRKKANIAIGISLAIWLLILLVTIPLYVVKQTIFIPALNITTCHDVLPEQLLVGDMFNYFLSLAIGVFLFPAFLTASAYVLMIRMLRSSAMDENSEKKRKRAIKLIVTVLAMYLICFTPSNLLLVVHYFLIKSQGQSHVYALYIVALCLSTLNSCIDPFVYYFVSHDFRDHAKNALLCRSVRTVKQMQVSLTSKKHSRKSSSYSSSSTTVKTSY

Binder	% Rel Binding [1] [%]	% Rel T1/2 [1] [%]	% Rel Binding [2] [%]	% Rel T1/2 [2] [%]	% Rel Binding [3] [%]	% Rel T1/2 [3] [%]	% Rel Binding [4] [%]	% Rel T1/2 [4] [%]	% Rel Binding [5] [%]	% Rel T1/2 [5] [%]	% Rel Binding [6] [%]	% Rel T1/2 [6] [%]	% Rel Binding [7] [%]	% Rel T1/2 [7] [%]	% Rel Binding [8] [%]	% Rel T1/2 [8] [%]	binding result [9]	% Rel Binding [10] [%]	% Rel T1/2 [10] [%]	% Rel Binding [11] [%]	also measured
B1	–	–	–	–	–	–	–	–	–	–	–	–	–	–	–	–	–	–	–	–	Kd (Peptide J (pig PAR-2)): 190 nM; T1/2 (Peptide J (pig PAR-2)): 0.16 min
B2	46	1	91	94	56	3	97	117	19	0	14	0	92	15	5	4	no binding (tested: 200 nM antibody)	105	90	100	% Rel T1/2 [11]: 100%; binding result [12]: no binding (tested: 200 nM antibody); % Rel Binding [13]: 109%; % Rel T1/2 [13]: 49%; IC50, NF-kB-luciferase, 10 nM Human Trypsin 1 (full length human PAR-2): 7.4 nM; IC50, NF-kB-luciferase, 200 nM Factor Xa (full length human PAR-2): 5.3 nM; IC50, NF-kB-luciferase, 750 nM Lung Tryptase (full length human PAR-2): 1.1 nM; binding result [14]: binds
B3	52	0	121	33	93	70	99	253	83	0	85	8	30	0	8	5	no binding (tested: 200 nM antibody)	115	180	100	% Rel T1/2 [11]: 100%; binding result [12]: no binding (tested: 200 nM antibody); % Rel Binding [13]: 121%; % Rel T1/2 [13]: 60%; binding result (Peptide J (pig PAR-2)): no binding; IC50, NF-kB-luciferase, 10 nM Human Trypsin 1 (full length human PAR-2): 42.7 nM; IC50, NF-kB-luciferase, 200 nM Factor Xa (full length human PAR-2): 17.1 nM; IC50, NF-kB-luciferase, 750 nM Lung Tryptase (full length human PAR-2): 1.6 nM; binding result [14]: binds
